Reference: patent publication US20200087363A1 (IMMATICS BIOTECHNOLOGIES, published 2020)

What follows are binders tested against T1, HLA-B*44:05 (human) (assay: UV peptide exchange, anti-b2m ELISA).
T1 construct: also called peptide-receptive MHC class I molecule
Summary of the method: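 Peptide-receptive HLA-B*44:05 monomers after UV-induced exchange were diluted 100-fold and captured on streptavidin-coated plates for 1 h at 37 °C. Bound complexes were detected with 2 µg/ml HRP-anti-β2m (1 h, 37 °C) and TMB, read at 450 nm. β2m signal reflects peptide-stabilized complex yield.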

| peptide exchange yield [%] | Binder |
| --- | --- |
| 50 to 75 | GEPRKLLTQDW |
| > 75 | RELARVVTL |
| 50 to 75 | AENIKKFLY |
| 50 to 75 | RENDFEPKF |
| 20 to 50 | SELGLPKEV |
| 50 to 75 | AEQQQQQMY |
| 50 to 75 | ALSPVPSHW |
| 50 to 75 | SESDLVNFI |
| 20 to 50 | TEGAVEVKY |
| 50 to 75 | SELSLLSLY |
| 50 to 75 | VEVGDRTDW |
| 50 to 75 | DELMRKESQW |
| 50 to 75 | SEFGAPRW |
| 20 to 50 | AEGYLDLDGI |
| 50 to 75 | AEEGPSVPKIY |
| 20 to 50 | AEVGDIIKV |
| 50 to 75 | AEYSVHKI |
| 50 to 75 | KEVDPASNTY |
| 20 to 50 | RETEDYSKQAL |
| 50 to 75 | AEMLGSVVGNW |
| > 75 | QELLDFTNW |
| 50 to 75 | NEVDGEYRY |
| 50 to 75 | AELDSKILAL |
| > 75 | TEENGFWYL |
| 20 to 50 | EEYQDSFERY |

| peptide exchange yield [%] | Binder |
| --- | --- |
| 50 to 75 | SESKVFQLL |
| 10 to 20 | ALEEGGGYIF |
| 50 to 75 | QEVGEITNL |
| 50 to 75 | EEHVYESIIRW |
| 50 to 75 | AEADLSYTWDF |
| 50 to 75 | KEMDPSRQSY |
| 50 to 75 | SEATHIITI |
| 20 to 50 | EDNPSGHTY |
| 50 to 75 | AESLFREAL |
| 50 to 75 | KEDNPSGHTY |
| > 75 | AEYSVHKITSTF |
| 50 to 75 | EEAGFPLAY |
| 50 to 75 | AELVGPVIPQDW |
| 50 to 75 | KEAINLLKNY |
| 50 to 75 | AEAEEAMKRL |
| 50 to 75 | REYEDGPLSL |
| 50 to 75 | SESSSAFQF |
| 50 to 75 | SESPIRISV |
| > 75 | NEIDIHSIYF |
| > 75 | TEFHMQFSY |
| 50 to 75 | EEINELNRMI |
| > 75 | EESFRCLPEW |
| 50 to 75 | EEYAGQITL |
| 50 to 75 | AEVGDIIKVHF |
| 20 to 50 | AEIEADRSYQ |

| peptide exchange yield [%] | Binder |
| --- | --- |
| 50 to 75 | REIENGNSF |
| 50 to 75 | SESALQTVI |
| 50 to 75 | HEDPSGSLHL |
| 50 to 75 | TELEPGLTY |
| 50 to 75 | AEEKAAVTSL |
| 50 to 75 | EEAVRSVAF |
| 20 to 50 | VEMTGKHQL |
| 20 to 50 | QEVAQVASA |
| 50 to 75 | AEVTLNNTI |
| > 75 | QEVAQVASAIL |
| 50 to 75 | SEYVHSSFSGF |
| 50 to 75 | TEVHSSPAQRW |
| 20 to 50 | AEALGAAKKL |
| 50 to 75 | DENIQKFIW |
| 50 to 75 | FETEQALRL |
| 50 to 75 | KEFGLDSVEL |
| 50 to 75 | EEAQWVRKYF |
| 50 to 75 | TEDYSKQAL |
| 20 to 50 | SESMVESKF |
| 50 to 75 | QEISAHRTEF |
| 50 to 75 | MEVDPIGHVY |
| 20 to 50 | SEYVHSSF |
| > 75 | QESVHVASYYW |
